“Also recorded” adds a separate entry of the source. Where two headings read alike, the source gives them in different places.
What was measured:
[1] = test system: ovalbumin challenged mice; settings: previously demonstrated, Riffo-Vasquez et al. 2004; cited from earlier work
[2] = test system: ovalbumin challenged mice; assay type: in vivo; settings: 24 h after repeated ovalbumin challenge, 10 μg intra-tracheal; for bronchial hyper-responsiveness to methacholine: FIG. 2; for recruitment of eosinophils to the airways (airways inflammation): percentage of eosinophils vs ovalbumin alone, FIG. 1; for levels of cytokines in BAL fluid (cytokine release in the lung): FIG. 3
Description: Allergic inflammation in the lung is induced by 2 intraperitoneal injections of 10 μg of ovalbumin (OVA) in 1 mg of alum with 7 days interval between them. Control animals receive alum only. On day 14, all animals are exposed to an aerosol of OVA for 25 minutes, once a day for 3 consecutive days. All measurements are performed 24 h after the last antigen challenge. […]

[3] = test system: spleen cells of C57Bl/6 mice; assay type: cell-based, C57BI/6 mice; settings: FIG. 8; for IL-12 release compared with Cpn60.1 at lower concentrations: lower concentrations (0.001-0.1 μg/ml)
[4] = test system: ovalbumin challenged mice; assay type: in vivo; settings: for levels of total IgE circulating in serum: 0.005 μg/mouse, FIG. 13; for recruitment of total cells to the airways / recruitment of eosinophils to the airways: intra-nasal; for recruitment of total cells to the airways: Cpn60.1 1 μg, FIG. 10; for recruitment of eosinophils to the airways: Cpn60.1 0.1 and 1 μg, peptide 4 0.005 μg, FIG. 11
LPS-treated mice = assay: LPS-induced neutrophil recruitment to the lung (non-allergic inflammation); assay type: in vivo, Female Balb/c mice
Description: Female Balb/c mice were pre-treated intranasally with Cpn60.1 (1 μg/ml) for 3 days in the absence or following pre-treatment with polymyxin B (5 μg/ml) to rule out any effect of LPS contamination. 30 minutes after the last dose of Cpn60.1, mice were treated with LPS (1 μg/ml). Neutrophil influx and TNF-alpha release in the lungs were determined by bronchoalveolar lavage 24 hours later.

[5] = test system: bone marrow dendritic cells; assay: IL-12 production by bone marrow dendritic cells pulsed with chaperonins; assay type: cell-based, Balb/c mice; settings: 48 h; Cpn60.1 0.1-30 μg/ml, Cpn10 10 μg/ml; FIG. 5
Description: (§1) Bone marrow cells from Balb/c mice were collected and cultured for 6 days in complete Dulbecco's Modified Eagle Medium containing 8 ng/ml of mouse GM-CSF. On day 6 of culture, the cells were collected, re-plated for 1 hour for removal of adherent cells, washed and plated at […] in 6-wells plates for analysis of surface markers expression and transference experiments and at 10^5 cells/well in 96-wells plate for cytokine measurements. In other experiments, cells were incubated at 10^6 cells/well for 24 h with the chaperonins and then another further 24 h with LPS (10 ng/ml).

[6] = test system: spleen cells collected from TLR4KO mice; assay: IL-12 release in spleen cells from TLR4KO mice; assay type: cell-based; settings: FIG. 9
[7] = test system: bone marrow dendritic cells; assay: LPS-induced IL12 production by dendritic cells after chaperonin pre-incubation; assay type: cell-based, Balb/c mice; settings: pre-incubation 24 hours, then LPS (10 ng/ml) further 24 h; FIG. 6
Description: as §1
Pre-incubation of DC's with Cpn60.1 but not Cpn10 for 24 hours inhibited IL12 production induced by LPS (FIG. 6).

[8] = test system: spleen cells from TLR2KO mice; assay: IL-12 release in spleen cells from TLR2KO mice; assay type: cell-based; settings: FIG. 9
[9] = test system: human peripheral blood monocytes; assay: Human monocyte assay, TNF-alpha secretion (ELISA); assay type: cell-based; settings: for LPS-induced TNF-alpha secretion: pre-treatment 1 hour, then LPS (1 ng/ml) 24 hours, FIGS. 18, 20
Description: We have established a human monocyte assay to compare the efficacy of Cpn60.1 and various peptide sequences of this protein. Human monocytes were obtained by density-dependent centrifugation from peripheral venus blood from healthy volunteers. Monocytes were then isolated and purified with cells adjusted to a density of 2×10^6 cells/ml which were incubated for 1 hour 30 minutes. The plates were then washed twice with Hanks solution. 0.9 ml of RPMI medium was then added to each well followed by polymyxin-B (5 μg/ml). 30 minutes later, 0.1 ml of Cpn at 0.0001-1000 ng/ml or peptides were added to the wells. Cells were then incubated at 37° C., 5% CO2 for 1 hour. The medium was removed and cells washed. 0.9 ml of medium was added to each well followed by 0.1 ml of LPS (1 ng/ml) and left to incubate for 24 hours. Supernatant was taken from each well and frozen for Enzyme Linked Immunosorbent Assay (ELISA).

UV-treated rats = assay: Ultra Violet Burn-induced hyperalgesia; assay type: in vivo, male Wistar rats; settings: compared to the group treated with ibuprofen; FIGS. 16 and 17
Description: (§2) The effect of Cpn60.1 has been investigated in 2 models of pain, Complete Freund's Adjuvant (CFA)-induced hyperalgesia and Ultra Violet Burn-induced hyperalgesia. Mechanical hyperalgesia was measured using Von Frey filaments applied with increasing force to the hind paw. Thermal hyperalgesia was measured using the time taken to withdraw the hind paw from a heat source. Cpn60.1 (50 & 500 μg/kg) was chronically administered to male Wistar rats (200 g) subcutaneously for 7 days. Every alternate day behavioural responses to mechanical and thermal allodynia were recorded. After baseline recordings, CFA was injected in to the hind paw to induce hyperalgesia and behavioural tests were performed. […] Another model of hyperalgesia was tested, this time using UV burn to induce allodynia. Again, Cpn60.1 had little effect at inhibiting hyperalgesia compared to the group treated with ibuprofen (FIGS. 16 and 17).

[10] = test system: co-culture of dendritic cells and RD11.10 T cells; assay: IL4 release in dendritic cell / T cell co-culture; assay type: cell-based, mice; settings: DC pre-treated 10 μg/ml 24 h, FIG. 7
Description: as §1
DC pre-treated with Cpn60.1 (10 μg/ml) or Cpn10 (10 μg/ml) for 24 h suppressed the release of IL4 from RD11.10 T cells in a DC/T cell co-culture. After 6 days of culture, cells were stimulated with anti-CD3 and anti-CD28 for further 24 hours and supernatants collected. IL5 and IL10 were not detected in this culture (FIG. 7).

CFA-treated rats = assay: Complete Freund's Adjuvant (CFA)-induced hyperalgesia; assay type: in vivo, male Wistar rats; settings: 50 & 500 μg/kg subcutaneously for 7 days; compared to ibuprofen 100 mg/kg; FIGS. 14 and 15
Description: as §2

[11] = test system: OVA-sensitized recipient mice; assay: Transfer of chaperonin pre-treated dendritic cells to OVA-sensitized recipient mice; assay type: in vivo; settings: dendritic cells pre-treated in vitro 24 h with 10 μg/ml, given topically to lungs; FIG. 4
Description: as §1
The DC's were pre-treated in vitro for 24 h with Cpn10 (10 μg/ml) and then administrated topically to the lungs of OVA-sensitized recipient mice.

[12] = 24 h after repeated ovalbumin challenge
[13] = 24 h after repeated ovalbumin challenge, listed as Cpn60.1-peptide 4

In the case of “Cpn60.2: M. tuberculosis chaperonin polypeptide chaperonin 60.2”, the “lung inflammation in a murine model of asthma” value (“lung inflammation” below) [1] is listed as “not”, the “bronchial hyper-responsiveness to methacholine” value (“bronchial hyper-responsiveness” for short) [2] is listed as “not” and the “recruitment of eosinophils to the airways (airways inflammation)” value (shortened to “recruitment … (airways inflammation)”) [2] is listed as “not”.

In the case of “LTTETVVVDKPAKAEDHDHHHGHAH (listed as Mycobacterium tuberculosis) [Peptide 6]”, the “IL-12 release compared with Cpn60.1 at lower concentrations” value ([3]; polymixin B) is reported as “less potent effect”.

In the case of “DGSVVVNKVSELPAGHGLNVNTLSYGDLAAD (listed as Mycobacterium tuberculosis) [Peptide 4]”, the “levels of total IgE circulating in serum” value [4, 12] is reported as “affected total IgE production”, the “levels of total IgE circulating in serum” value [4, 13] is reported as “significantly inhibited” and the “levels of IL-5 in BAL fluid” value ([4]; 24 h after repeated ovalbumin challenge, FIG. 12) is reported as “not caused by an interference with the production of IL-5”. For the same molecule, the “levels of IL-5 in BAL fluid” value ([4]; 24 h after repeated ovalbumin challenge, FIG. 12, listed as Cpn60.1-peptide 4) was “not significantly inhibited”, the “recruitment of total cells to the airways” value (from here on “recruitment of total cells”) [4, 12] was “inhibited” and the “recruitment of eosinophils to the airways” value [4, 12] was “significant reduction”. For the same molecule, the “recruitment of eosinophils to the airways” value [4, 13] was “inhibited”, the “IL-12 release compared with Cpn60.1 at higher concentration” value ([3]; higher concentration (0.1-30 μg/ml), polymixin B) was “reduced effect in comparison to Cpn60.1” and the “IL-12 release compared with Cpn60.1 at lower concentrations” value ([3]; polymixin B) was “more effective than Cpn60.1”.

B1: Cpn60.1: chaperonin protein Chaperonin 60.1 of Mycobacterium tuberculosis, amino acid sequence shown in FIG. 25 (protein)
chain: MSKLIEYDETARRAMEVGMDKLADTVRVTLGPRGRHVVLAKAFGGPTVTNDGVTVAREIELEDPFEDLGAQLVKSVATKTNDVAGDGTTTATILAQALIKGGLRLVAAGVNPIALGVGIGKAADAVSEALLASATPVSGKTGIAQVATVSSRDEQIGDLVGEAMSKVGHDGVVSVEESSTLGTELEFTEGIGFDKGFLSAYFVTDFDNQQAVLEDALILLHQDKISSLPDLLPLLEKVAGTGKPLLIVAEDVEGEALATLVVNAIRKTLKAVAVKGPYFGDRRKAFLEDLAVVTGGQVVNPDAGMVLREVGLEVLGSARRVVVSKDDTVIVDGGGTAEAVANRAKHLRAEIDKSDSDWDREKLGERLAKLAGGVAVIKVGAATETALKERKESVEDAVAAAKAAVEEGIVPGGGASLIHQARKALTELRASLTGDEVLGVDVFSEALAAPLFWIAANAGLDGSVVVNKVSELPAGHGLNVNTLSYGDLAADGVIDPVKVTRSAVLNASSVARMVLTTETVVVDKPAKAEDHDHHHGHAH
For B1, the “TNF-alpha secretion in the lungs” value (LPS-treated mice; intranasal 1 μg/ml for 3 days, LPS 1 μg/ml, lavage 24 hours later, FIG. 24) was “not significantly attenuated”, the “LPS-induced neutrophilia (neutrophils recovered from lavage)” value (LPS-treated mice; intranasal 1 μg/ml for 3 days, LPS 1 μg/ml, lavage at 24 hours, FIG. 24) was “reduced LPS-induced neutrophilia; also recorded: suppression in neutrophilia” and the “neutrophil recruitment with the substance alone” value (LPS-treated mice; no LPS, FIG. 23) was “No neutrophil recruitment”. The “effect of polymyxin B pre-treatment on suppression of neutrophil recruitment” value (LPS-treated mice; polymyxin B (5 μg/ml)) was “made no difference”, the “IL12 production by dendritic cells” value [5] was “produced IL12 in a dose-dependant manner; also recorded: induced the release of IL-12 in a dose dependent-manner” and the “IL-12 response of TLR4KO spleen cells compared to wild type C57bl/6” value [6] was “reduced response; also recorded: significantly refractory”. For the same molecule, the “IL12 production induced by LPS” value [7] was “inhibited”, the “IL-12 response of TLR2KO spleen cells” value [8] was “refractory” and the “TNF-alpha release induced by LPS, percent of control values” ([9]; Cpn60.1 vs Cpn60.1 peptides, FIG. 21) was “suppress”. The “concentration of maximum inhibition of LPS-induced TNF-α secretion” value ([9]; although not significant, FIG. 18) was 1 ng/mL, the “TNF-alpha secretion induced by the substance alone” value ([9]; no LPS) was “able to stimulate human monocytes to induce TNF-alpha secretion” and the “LPS-induced TNF-alpha secretion in the presence of polymyxin-B” value ([9]; polymyxin-B 5 μg/ml, FIG. 19) was “suppresses”. The “LPS-induced TNF-alpha secretion” value [9] was “suppresses; also recorded: inhibited TNF-alpha secretion at low doses”, the “UV burn-induced hyperalgesia (mechanical and thermal)” value (UV-treated rats) was “little effect” and the “levels of IL4 in DC/T cell co-culture” value ([10]; […]) was “suppressed”. For the same molecule, the “lung inflammation” value [1] was “suppressed”, the “CFA-induced hyperalgesia (mechanical and thermal)” value (CFA-treated rats) was “Neither dose of Cpn60.1 reduced CFA-induced hyperalgesia” and the “recruitment of total cells” value ([4]; […]) was “significantly inhibited”. The “recruitment of total cells” value ([4]; […], listed as Cpn60) was “inhibited”, the “recruitment of eosinophils to the airways” value ([4]; […]) was “significant reduction” and the “recruitment of eosinophils to the airways” value ([4]; […], listed as Cpn60) was “inhibited”. For the same molecule, the “levels of IL-5 in BAL fluid” value ([4]; mouse, in vivo) was “not significantly inhibited; also recorded: not caused by an interference with the production of IL-5”, the IL-12 release ([3]; 0.001-30 μg/ml, 24 h, polymixin B 5 μg/ml) was “induce IL-12 release” and the “bronchial hyper-responsiveness” value [2] was “reduced; also recorded: significantly inhibit”. The “levels of cytokines in BAL fluid (cytokine release in the lung)” value [2] was “inhibited; also recorded: significantly inhibit” and the “recruitment … (airways inflammation)” value [2] was “inhibited; also recorded: significantly inhibit”.

B2: Cpn10: M. tuberculosis chaperonin polypeptide chaperonin 10 (protein, UniProt P9WPE5 2-100, looked up)
Co-chaperonin GroES: AKVNIKPLEDKILVQANEAETTTASGLVIPDTAKEKPQEGTVVAVGPGRWDEDGEKRIPLDVAEGDTVIYSKYGGTEIKYNGEEYLILSARDVLAVVSK
In the case of B2, the “IL12 production by dendritic cells” value [5] is reported as “induced low levels; also recorded: induced lower levels of IL-12 release in comparison to LPS and Cpn60.1”, the “IL12 production induced by LPS” value [7] is reported as “not” and the “LPS-induced TNF-alpha secretion” value [9] is reported as “does not suppress; also recorded: failed to inhibit”. The “levels of IL4 in DC/T cell co-culture” value ([10]; 6 days co-culture, anti-CD3 and anti-CD28 24 hours) was “suppressed”, the “lung inflammation” value [1] was “suppressed” and the “eosinophils migration to the lung” value [11] was “significantly inhibited”. The “bronchial hyper-responsiveness” value [2] was “reduced; also recorded: significantly inhibit”, the “levels of cytokines in BAL fluid (cytokine release in the lung)” value [2] was “significantly inhibit” and the “recruitment … (airways inflammation)” value [2] was “inhibited; also recorded: significantly inhibit”.

Source: US9085632B2, “Biological materials and uses thereof” (PEPTINNOVATE LIMITED, priority 2008, dated 2015)
